Experimental data from patent US20100292443A1 (published 2010).

Molecular target: T1, protein A (immobilized on a protein A column) (UniProt P38507 37-327)
T1 construct: Other paragraphs mention recombinant protein A on agarose and ProSep-vA-Ultra resin; also called protein A resin
Assay: protein A column equilibrated with 20 mM TRIS pH 8, after papain digestion
Protocol: Purified, intact anti-S1P IgG was digested with activated papain (incubated 10 mg/ml papain in 5.5 mM cysteine-HCL, 1 mM EDTA, 70 μM 2-mercaptoethanol for 0.5 hours at 37° C.) in digestion buffer (100:1 LT1009:papain in 50 mM sodium phosphate pH 7.2, 2 mM EDTA). After 2 hours at 37° C., the protease reaction was quenched with 50 mM iodoacetamide, dialyzed against 20 mM TRIS pH 9, and loaded onto 2×5 ml HiTrap Q columns. The bound protein was eluted with a linear gradient of 20 mM TRIS pH 8, 0.5 M NaCl and collected in 4 ml fractions. The fractions containing the anti-S1P Fab fragment were pooled and loaded onto a protein A column equilibrated with 20 mM TRIS pH 8. The intact antibody and the Fc fragment bound to the resin, while the Fab fragment was present in the flow through fraction. The Fab fragment was concentrated using a centricon-YM30 centrifugal concentrator (Millipore, Cat No 4209), dialyzed against 25 mM HEPES pH 7, and stored at 4° C.

B1: LT1009 Fab fragment (anti-S1P Fab fragment, from papain digestion) (Fab)
heavy: EVQLVQSGAEVKKPGESLKISCQSFGYIFIDHTIHWMRQMPGQGLEWMGAISPRHDITKYNEMFRGQVTISADKSSSTAYLQWSSLKASDTAMYFCARGGFYGSTIWFDFWGQGTMVTVSSASTKGPSVFPLAPSSKSTSGGTAALGCLVKDYFPEPVTVSWNSGALTSGVHTFPAVLQSSGLYSLSSVVTVPSSSLGTQTYICNVNHKPSNTKVDKRVEPKSCDKTH
light: ETTVTQSPSFLSASVGDRVTITCITTTDIDDDMNWFQQEPGKAPKLLISEGNILRPGVPSRFSSSGYGTDFTLTISKLQPEDFATYYCLQSDNLPFTFGQGTKLEIKRTVAAPSVFIFPPSDEQLKSGTASVVCLLNNFYPREAKVQWKVDNALQSGNSQESVTEQDSKDSTYSLSSTLTLSKADYEKHKVYACEVTHQGLSSPVTKSFNRGEC
binding result: no binding
